This is an account of results in publication PMC2850574 (Biochemistry, 2010).

The target of assay [1] is IAEDANS-labeled SecAΔ11-Cys-190 (E. coli) (UniProt P10408).
The target in assay [2] is SecA-Cys-256 (Escherichia coli, UniProt P10408, C885S/C887S/C896S/C98S/T256C). The experiment in a line: Signal peptide binding to SecA-Cys-256 by fluorescence anisotropy. For orientation: Polarisation of emitted light reports the rotation of a fluorescent probe.
The target of assay [3] is SecAΔ11-Cys-190 (Escherichia coli, UniProt P10408, C885S/C887S/C896S/C98S/N190C). The experiment in a line: Binding of SP22 to monomeric SecAΔ11-Cys-190 by FRET titration.
Assay [4] deals with SecA-Cys-190. The experiment in a line: Specificity control: scrambled SP22 binding/FRET. To be noted: 7 μM IAEDANS-labeled SecA-Cys-190, 18 μM IANBD-labeled scrambled SP22; data not shown. Further details: species or system Escherichia coli.
Assay [5] concerns the target LamB signal peptide signal peptide (Escherichia coli) (UniProt P02943). To be noted: cited from earlier work.
The target in assay [6] is IANBD-labeled alkaline phosphatase signal peptide SP22 (E. coli). The experiment in a line: fluorescence polarisation.
The target of assay [7] is T1, wild-type SecA (Escherichia coli SecA ATPase) (E. coli, UniProt P10408 9-836). The assay is described as follows: fluorescence polarisation.
Assay [8] addresses T1, wild-type SecA (Escherichia coli SecA …). The experiment in a line: fluorescence polarisation. The source holds these as a separate data set.

Ends that are not written are not given here.

The Kd is the free concentration of one partner at which half of the binding sites on the other are occupied at equilibrium, for simple one-to-one binding. In the case of “IAEDANS-labeled SecAΔ11-Cys-190 (from UniProt P10408 9-836) (natural protein)”, in assay [1], the Kd was 230 nM.

MKQSTIALALLPLLFTPVTKAC-NH2 [SP22]: the dissociation constant Kd in assay [2] stood at 1100 ± 200 nM; in assay [3], 3060 ± 1130 nM.

With “PLMDTEITLKFLSPLQALKTVC-NH2 [scrambled SP22]”, the “high-affinity binding and FRET” value in assay [4] is on record as “neither high-affinity binding nor FRET was detected”.

As to SecA (from UniProt P10408), in assay [5], the equilibrium dissociation constant (Kd) is 100000 nM.

As for “SecA-Cys-256 (unlabeled) (from UniProt P10408 9-836) (natural protein)”, the dissociation constant Kd in assay [6] is 1100 nM.

For MKQSTIALALLPLLFTPVTKAC(IANBD)-NH2 [IANBD-labeled alkaline phosphatase signal peptide SP22], in assay [7], the “stoichiometry N” value was 1 mole ratio of signal peptide to SecA. Also, the Kd in assay [8] came to 1400 ± 200 nM.
